Here are results for two molecules from patent US20170233497A1.

This assay addresses IgG1Δhinge fragment of IgG1-7D8-K409R (human). Nature of the assay: native mass spectrometry; CH2-CH3 fragment mixed 24 h with the IgG1Δhinge fragment of IgG1-7D8-K409R (heterodimer).

Residue numbers refer to the chain shown, from its start. Names and notes keep the numbering of the source.

B1: CH2-CH3 fragment of human IgG1 with F405L, P01857 224-330 (protein, UniProt P01857-1 224-330, looked up, name in EU numbering, not shown: small tags and cut ends)
chain: GQPREPQVYTLPPSRDELTKNQVSLTCLVKGFYPSDIAVEWESNGQPENNYKTTPPVLDSDGSFLLYSKLTVDKSRWQQGNVFSCSVMHEALHNHYTQKSLSLSPGK
Regarding B1, the Kd (commonly the constant that tells how readily two partners part at equilibrium) was 12 nM.

B2: CH2-CH3 fragment of human IgG1 with T350I-K370T-F405L, P01857 224-330 (protein, UniProt P01857-1 224-330, looked up, name in EU numbering, not shown: small tags and cut ends)
chain: B1 chain with T10I, K30T
The molecule B2 registered a Kd of 17 nM.
